This passage reports Kd results from PMC10445101, “A neutralizable dimeric anti-thrombin aptamer with potent anticoagulant activity in mice”.

Data set [1] has as its target T1, alpha-thrombin (human) (Homo sapiens, UniProt P00734;P00734 315-363;364-622). The data set can be described thus: SPR; SPR (Biacore X100, CM5, single-cycle kinetics, 1:1 fit): PBS pH 7.4, 0.05% (v/v) Tween 20; aptamers annealed in PBS (95 to 25 C); 1 M NaCl regeneration; assay t. On the technique in general: SPR reads the build-up and loss of mass on a sensor chip optically.

The target of data set [2] is T2, alpha-thrombin (mouse) (Mus musculus, UniProt P19221;P19221 312-360;361-618). The data set can be described thus: SPR; SPR (Biacore X100, CM5, single-cycle kinetics, 1:1 fit): PBS pH 7.4, 0.05% (v/v) Tween 20; aptamers annealed in PBS (95 to 25 C); 1 M NaCl regeneration; assay temperature not stated. To be noted: protein: commercial, copies: 1;1.
Data set [3] has as its target T1, alpha-thrombin (human). The data set can be described thus: SPR; 1:1 approximation; SPR (Biacore X100, CM5, single-cycle kinetics, 1:1 fit): PBS pH 7.4, 0.05% (v/v) Tween 20; aptamers annealed in PBS (95 to 25 C); 1 M NaCl regeneration; assay t.
Data set [4] deals with T2, alpha-thrombin (mouse). The data set can be described thus: SPR; 1:1 approximation; SPR (Biacore X100, CM5, single-cycle kinetics, 1:1 fit): PBS pH 7.4, 0.05% (v/v) Tween 20; aptamers annealed in PBS (95 to 25 C); 1 M NaCl regeneration; assay temperature not stated. Particulars: protein: commercial; copies: 1;1; pseudo-circular, 17 bp duplex linker.

B1: Pse08-08 (M08s-ds17-M08s) (structured_DNA)
DNA: GTCACTAGAGGTCAGATGATGGGGATGGGGGGTTGGAGGAATGGATGACCTCTAGTGACTGATTTACGAGGTCAGATGATGGGGATGGGGGGTTGGAGGAATGGATGACCTCGTAAATCA
For B1, the Kd (as a rule, the concentration at which binding is half-saturated) with alpha-thrombin (human) [1] amounted to 0.4 nM; in the data set with alpha-thrombin (mouse) [2] (pseudo-circular, 17 bp duplex linker), 4.2 nM.
Regarding AGGTCAGATGATGGGGATGGGGGGTTGGAGGAATGGATGACCT (structured_DNA) [M08s-1 (M08s)], the Kd with alpha-thrombin (human) [1] is 47.2 nM; in the data set with alpha-thrombin (mouse) [2] (predicted G4 with stem), 495 nM.
As to AGTCCGTGGTAGGGCAGGTTGGGGTGACT (structured_DNA) [TBA29 (HD22)], the Kd is 36.9 nM with alpha-thrombin (human) [1] and 22 nM with alpha-thrombin (mouse) [2].

B2: Pse08-29 (M08s-ds17-TBA29) (structured_DNA)
DNA: GTCACTAGAGGTCAGATGATGGGGATGGGGGGTTGGAGGAATGGATGACCTCTAGTGACTGATTTACGAGTCCGTGGTAGGGCAGGTTGGGGTGACTCGTAAATCA
Regarding B2, the Kd with alpha-thrombin (human) [3] stood at 2.6 nM; in the data set with alpha-thrombin (mouse) [4], 6.3 nM.
